The test addresses SARS-CoV-2 nsp12 wild type (SARS-CoV-2) (UniProt P0DTD1). As to the kind of experiment: MST. Conditions: complex.

The term EC50 denotes the concentration at which the effect is half-maximal. Low readings indicate greater potency, high ones weaker potency. Substance “subcomplex of wt nsp7, wt nsp8 and dsRNA (1:2:1) (from UniProt P0DTD1)” displayed an EC50 of 12.6 nM.

The values above are taken from article PMC11325161.
